Laboratory results reported in publication PMC4428439.

Target: IraP with a C-terminal His10-tag, purified (E. coli) (UniProt P0AAN9)
Sequence (P0AAN9 whole entry): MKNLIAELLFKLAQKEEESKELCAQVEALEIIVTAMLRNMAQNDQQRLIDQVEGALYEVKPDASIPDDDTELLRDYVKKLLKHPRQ

rate of σ^S turnover in the presence of IraP and AcP with a 5-fold excess of RssBN (Figure S4): 2 fold
Substance: RssBN, N-terminal domain of RssB (residues 1-129), untagged, purified (from UniProt P0AEV1 1-129) (domain or fragment)
